# In PMC3689539 (Structure (London, England : 1993), 2009):
# B1: full length unphosphorylated wild-type MEK6 (natural protein, human, UniProt P52564 1-334, looked up)
# chain: MSQSKGKKRNPGLKIPKEAFEQPQTSSTPPRDLDSKACISIGNQNFEVKADDLEPIMELGRGAYGVVEKMRHVPSGQIMAVKRIRATVNSQEQKRLLMDLDISMRTVDCPFTVTFYGALFREGDVWICMELMDTSLDKFYKQVIDKGQTIPEDILGKIAVSIVKALEHLHSKLSVIHRDVKPSNVLINALGQVKMCDFGISGYLVDSVAKTIDAGCKPYMAPERINPELNQKGYSVKSDIWSLGITMIELAILRFPYDSWGTPFQQLKQVVEEPSPQLPADKFSAEFVDFTSQCLKKNSKERPTYPELMQHPFFTLHESKGTDVASFVKLILGD
# Target: the molecule itself
# Experiment: SEC
protein,measurement,value
B1,stoichiometry N,2
